This note sets out measurements from publication PMC9298051, “A phytobacterial TIR domain effector manipulates NAD^+ to promote virulence” (The New Phytologist, 2021).

The target in one series is T1, AbTIR (Acinetobacter baumannii, UniProt A0A009IHW8).
T1 construct: gene J512_3302; His-tagged recombinant AbTIR-His
The series is described as follows: HPLC of reaction products. It counts as biochemical. The settings on record: product v-cADPR.

In series [1] the test system is NC(=O)c1ccc[n+]([C@@H]2O[C@H](COP(=O)(O)OP(=O)(O)OC[C@H]3O[C@@H](n4cnc5c(N)ncnc54)[C@H](O)[C@@H]3O)[C@@H](O)[C@H]2O)c1. The series is described as follows: purified protein. The following applies: room temperature, 60 min, 1–600 μM NAD+.

T1 sequence (A0A009IHW8 whole entry): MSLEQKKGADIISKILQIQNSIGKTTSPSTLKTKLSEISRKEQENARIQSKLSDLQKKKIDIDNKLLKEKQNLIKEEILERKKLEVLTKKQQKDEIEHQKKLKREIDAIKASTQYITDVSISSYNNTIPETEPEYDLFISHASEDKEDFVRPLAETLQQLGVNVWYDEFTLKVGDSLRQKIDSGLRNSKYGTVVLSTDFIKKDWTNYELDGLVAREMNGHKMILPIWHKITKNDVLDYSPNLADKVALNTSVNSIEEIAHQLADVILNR

Consider `NC(=O)c1ccc[n+]([C@@H]2O[C@H](COP(=O)(O)OP(=O)(O)OC[C@H]3O[C@@H](n4cnc5c(N)ncnc54)[C@H](O)[C@@H]3O)[C@@H](O)[C@H]2O)c1` [NAD^+], for which the “HPLC of reaction products” value on AbTIR is “NAD^+ hydrolase reactions were conducted with purified HopAM1 and AbTIR”.

Broadly, the Km is the concentration of substrate that gives half-maximal velocity. The kcat is the number of substrate molecules converted per active site and unit of time at saturation. Consider “HopAM1 (Pseudomonas syringae pv. tomato str. DC3000)”, for which, in series [1], the Km was determined as 174.8 µM and the kcat is 0.00933 s⁻¹.
